US20070280985A1

Experiments:
Experiment in all cases: cell-based or functional assay
Connexin 37 (human) = Connexin 37 (human) (UniProt P35212)
Connexin 43 (human) = Connexin 43 (human) (UniProt P17302)
Connexin 40 (human) = Connexin 40 (human) (UniProt P36382)
Sequence of UniProt P36382 (P36382 whole entry): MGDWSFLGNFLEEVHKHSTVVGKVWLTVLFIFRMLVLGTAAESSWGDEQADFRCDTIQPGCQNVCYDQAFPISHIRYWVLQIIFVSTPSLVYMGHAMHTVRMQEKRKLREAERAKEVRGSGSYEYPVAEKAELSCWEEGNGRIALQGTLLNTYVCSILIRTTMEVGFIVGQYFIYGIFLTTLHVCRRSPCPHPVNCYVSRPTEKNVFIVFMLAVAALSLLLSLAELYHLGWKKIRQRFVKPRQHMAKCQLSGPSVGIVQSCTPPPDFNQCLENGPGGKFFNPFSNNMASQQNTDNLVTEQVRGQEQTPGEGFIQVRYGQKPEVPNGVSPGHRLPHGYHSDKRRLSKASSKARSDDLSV

Sequence of UniProt P35212 (P35212 whole entry): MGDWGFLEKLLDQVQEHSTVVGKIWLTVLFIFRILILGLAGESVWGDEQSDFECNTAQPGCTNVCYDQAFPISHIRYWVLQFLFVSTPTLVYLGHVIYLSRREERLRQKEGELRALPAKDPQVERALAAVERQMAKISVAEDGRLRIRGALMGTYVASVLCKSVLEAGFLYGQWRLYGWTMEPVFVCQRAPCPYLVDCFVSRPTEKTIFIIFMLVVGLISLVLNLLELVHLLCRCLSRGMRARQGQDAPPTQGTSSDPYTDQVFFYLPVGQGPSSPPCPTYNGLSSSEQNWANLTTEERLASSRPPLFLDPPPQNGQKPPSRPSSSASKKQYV
Sequence of UniProt P17302 (P17302 2-382): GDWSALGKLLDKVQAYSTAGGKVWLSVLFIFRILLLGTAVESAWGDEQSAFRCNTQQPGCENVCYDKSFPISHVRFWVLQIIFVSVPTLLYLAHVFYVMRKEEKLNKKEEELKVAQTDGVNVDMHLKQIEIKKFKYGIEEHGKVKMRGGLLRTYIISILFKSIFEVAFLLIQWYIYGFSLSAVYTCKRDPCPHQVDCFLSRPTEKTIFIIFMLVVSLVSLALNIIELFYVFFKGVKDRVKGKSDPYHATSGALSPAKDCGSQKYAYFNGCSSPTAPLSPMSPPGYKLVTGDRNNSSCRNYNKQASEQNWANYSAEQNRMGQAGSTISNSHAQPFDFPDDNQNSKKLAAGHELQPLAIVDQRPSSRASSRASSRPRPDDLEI

Lucifer Yellow dye-coupling (GJIC) in HAEC after 16 hours of flow (Connexin 37 (human))	decrease in flow-induced GJIC (dye-coupling) in HAEC (Connexin 37 (human))	Lucifer Yellow dye-coupling (GJIC) in HAEC after 16 hours of flow (Connexin 43 (human))	decrease in flow-induced GJIC (dye-coupling) in HAEC (Connexin 43 (human))	decrease in Lucifer Yellow dye-coupling (GJIC) in HAEC after 5 hours of flow (Connexin 40 (human))	decrease in Lucifer Yellow dye-coupling (GJIC) in HAEC after 16 hours of flow (Connexin 40 (human))	Substance
26%	25%	26%	25%			Cx mimetic peptide 43,37Gap27
				33%	57%	mimetic peptide 40Gap27
